Laboratory results as given in patent publication US11414454B2, “Compositions, methods, and systems for affinity-based protein identification and purification” (Auctus Biologies, Inc., priority 2017, dated 2022).

Key:
[1] = tested on: rhodamine labeled RPtag (small); assay: Sequential boiling/recovery trials, fraction binding of RPtag (large); parameters: species or system Thermoanaerobacter tengcongensis
Method: The ability of the disclosed proteins and peptides to function after being subjected to thermal stress was also tested. Here again the RPtag (large) and anti-6×His antibody were selected for analysis. Briefly, the RPtag(large) or the anti-6×His antibody was subjected to sequential rounds of boiling and recovery. Specifically, the proteins were subjected to sequential rounds of: 5 min boiling in buffer, followed by recovery for 1 min on ice. After each round of boiling/recovery, the proteins were assayed for binding to their corresponding epitopes and the results plotted.
RPtag (large) and an the anti-His tag antibody (4E3D10H2/E3 purchased from ThermoFisher Scientific) were placed in a solution at about 0.1-1 μM [final] in a buffer of 50 mM Tris pH 8.0, 0.005% Tween20. The protein solutions were repeatedly heated for 5 min at 95° C. and then recovered on ice for 1 min. After each round of heating/cooling, an aliquot was taken and diluted to 100 nM, and incubated with 100 nM either rhodamine labeled RPtag (small) or rhodamine labeled 6x-His peptide (sequence: Rhodamine-GHHHHHH), and the fluorescence anisotropy measured. Fraction binding was calculated via the equation F=(r−rmin)/(r0−rmin) where F is the fraction binding, r is the measured anisotropy, rmin is the anisotropy in the absence of binding protein, and r0 is the anisotropy before any boiling trials.

RPtag(small) (Nd2Cd4) = assay: Fluorescence anisotropy Kd of RPtag(large) variants for control RPtag(small) peptide Nd2Cd4; type: binding, Thermoanaerobacter tengcongensis; conditions: 2 nM rhodamine labeled Nd2Cd4
Method: An initial Kd was measured between RPtag(large) and the PDGF-β N-terminal peptide (FIG. 16). […] Next, competition experiments were performed using the mutant RPtag(small) peptide Nd2,P5A,E18A.
Kds were measured by incubating increasing concentrations of unlabeled RPtag large mutant with either 20 nM rhodamine labeled PDGF-β n-terminal peptide or 2 nM rhodamine labeled Nd2Cd4 variant of RPtag small, as it has the same number of amino acids as the PDGF-β peptide but contains the native binding sequence. After the incubation, fluorescence anisotropy was measured, and the resultant curves were fit with the equation f=y0+(ymax−y0)*(Ptot+x+Kd−sqrt((Ptot+x+Kd)^2−4*Ptot*x))/(2*Ptot), where y0 is the baseline anisotropy, ymax is the maximum anisotropy, Ptot is the fixed concentration of labeled peptide used, x is the variable concentration of protein used, and Kd is the measured Kd. Data are presented here as Ka=1/Kd. Log transformed Ka's were then compared by one-way ANOVA relative to wt control with Holm-Sidak post hoc correction. ***p<0.001, **p<0.01, *p<0.05. data are mean±SEM (n=3-4). Buffer was 50 mM Tris pH 8.0, 0.005% Tween20. For the sake of comparison, the double mutant h122l,a253a is shown on the same axes, but was not included in the statistical analysis as the experiment was done after the initial results identified the two single mutants.

Chain of rhodamine labeled RPtag (small) (as listed by the source): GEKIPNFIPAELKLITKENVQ

B1: RPtag (large): RB protein fragment a.a. 1-257 from Thermoanaerobacter tengcongensis; SEQ ID NO: 3 with tags and Cys (protein)
chain: MGSSCHHHHHHSQDPNSSSMKEGKTIGLVISTLNNPFFVTLKNGAEEKAKELGYKIIVEDSQNDSSKELSNVEDLIQQKVDVLLINPVDSDAVVTAIKEANSKNIPVITIDRSANGGDVVSHIASDNVKGGEMAAEFIAKALKGKGNVVELEGIPGASAARDRGKGFDEAIAKYPDIKIVAKQAADFDRSKGLSVMENILQAQPKIDAVFAQNDEMALGAIKAIEAANRQGIIVVGFDGTEDALKAIKEGKMAATIAQQPALMGSLGVEMADKYLK
modifications: tags and added Cys
[1]
  stability relative to commercially available products: at least 10 fold
RPtag(small) (Nd2Cd4)
  Kd: 0.41 nM
